# Data published in publication PMC3305458, “E2F1 Mediated Apoptosis Induced by the DNA Damage Response Is Blocked by EBV Nuclear Antigen 3C in Lymphoblastoid Cells” (PLoS Pathogens, 2012).
# B1: myc-tagged EBNA3C (residues 1–992) (natural protein)
# chain: MESFEGQGDSRQSPDNERGDNVQTTGEHDQDPGPGPPSSGASERLVPEESYSRDQQPWGQSRGDENRGWMQRIRRRRRRRAALSGHLLDTEDNVPPWLPPHDITPYTARNIRDAACRAVKQSHLQALSNLILDSGLDTQHILCFVMAARQRLQDIRRGPLVAEGGVGWRHWLLTSPSQSWPMGYRTATLRTLTPVPNRVGADSIMLTATFGCQNAARTLNTFSATVWTPPHAGPREQERYAREAEVRFLRGKWQRRYRRIYDLIELCGSLHHIWQNLLQTEENLLDFVRFMGVMSSCNNPAVNYWFHKTIGNFKPYYPWNAPPNENPYHARRGIKEHVIQNAFRKAQIQGLSMLATGGEPRGDATSETSSDEDTGRQGSDVELESSDDELPYIDPNMEPVQQRPVMFVSRVPAKKPRKLPWPTPKTHPVKRTNVKTSDRSDKAEAQSTPERPGPSEQSSVTVEPAHPTPVEMPMVILHQPPPVPKPVPVKPTPPPSRRRRGACVVYDDDVIEVIDVETTEDSSSVSQPNKPHRKHQDGFQRSGRRQKRAAPPTVSPSDTGPPAVGPPAAGPPAAGPPAAGPPAAGPPAAGPPAAGPRILAPLSAGPPAAGPHIVTPPSARPRIMAPPVVRMFMRERQLPQSTGRKPQCFWEMRAGREITQMQQEPSSHLQSATQPTTPRPSWAPSVCALSVMDAGKAQPIESSHLSSMSPTQPISHEEQPRYEDPDAPLDLSLHPDVAAQPAPQAPYQGYQEPPAPQAPYQGYQEPPPPQAPYQGYQEPPAHGLQSSSYPGYAGPWTPRSQHPCYRHPWAPWSQDPVHGHTQGPWDPRAPHLPPQWDGSAGHGQDQVSQFPHLQSETGPPRLQLSLVPLVSSSAPSWSSPQPRAPIRPIPTRFPPPPMPLQDSMAVGCDSSGTACPSMPFASDYSQGAFTPLDINATTPKRPRVEESSHGPARCSQATAEAQEILSDNSEISVFPKDAKQTDYDASTESELD
# Molecular target: flag-tagged wild-type E2F1 (residues 1–437) (UniProt Q01094 1-437)
# Sequence (Q01094 whole entry, the tested form may be a part): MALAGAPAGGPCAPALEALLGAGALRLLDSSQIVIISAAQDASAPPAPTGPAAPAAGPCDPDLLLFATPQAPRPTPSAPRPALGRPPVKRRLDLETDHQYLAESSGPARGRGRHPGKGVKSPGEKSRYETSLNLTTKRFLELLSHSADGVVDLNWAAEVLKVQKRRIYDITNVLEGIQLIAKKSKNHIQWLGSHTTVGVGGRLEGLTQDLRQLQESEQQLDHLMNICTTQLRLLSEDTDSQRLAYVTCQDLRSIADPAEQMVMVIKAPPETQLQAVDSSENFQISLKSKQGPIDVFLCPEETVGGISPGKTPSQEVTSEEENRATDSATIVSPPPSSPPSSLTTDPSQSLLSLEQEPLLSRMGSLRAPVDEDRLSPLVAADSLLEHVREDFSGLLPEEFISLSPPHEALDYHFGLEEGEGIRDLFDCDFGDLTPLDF
# Test: cell-based or functional assay
binder,measurement,value
B1,"proliferation of G418-selected Saos-2 cells after serum starvation and 5 µM etoposide, counted for 6 days: E2F1 plus EBNA3C against E2F1 alone or E2F1 plus EBNA3C residues 366-620",~4 fold
